# Measurements taken from article PMC9482650, “Quantitative fragmentomics allow affinity mapping of interactomes” (Nature Communications, 2022).
# T1: PTPN13_1, Q12923
# T1 sequence (Q12923 1088-1188, limits assumed, looked up): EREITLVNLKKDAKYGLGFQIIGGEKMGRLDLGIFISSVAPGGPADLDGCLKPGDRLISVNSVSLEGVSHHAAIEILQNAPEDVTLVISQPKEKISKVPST
# T2: TJP3_3, O95049
# T2 sequence (O95049 375-456, limits assumed, looked up): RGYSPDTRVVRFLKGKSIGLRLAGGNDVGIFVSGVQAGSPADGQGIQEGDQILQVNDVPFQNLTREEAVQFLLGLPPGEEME
# T3: APBA2_1, Q99767
# T3 sequence (Q99767 563-664, limits assumed, looked up): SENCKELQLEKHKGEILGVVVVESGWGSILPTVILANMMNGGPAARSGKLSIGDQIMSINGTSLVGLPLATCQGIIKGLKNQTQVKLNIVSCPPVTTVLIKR
# T4: DFNB31_3, Q9P202
# T4 sequence (Q9P202 811-907, limits assumed, looked up): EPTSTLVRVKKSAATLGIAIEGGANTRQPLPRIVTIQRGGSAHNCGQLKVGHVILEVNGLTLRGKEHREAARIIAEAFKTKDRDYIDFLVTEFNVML
# T5: PDZRN3_1, Q9UPQ7
# T5 sequence (Q9UPQ7 244-349, limits assumed, looked up): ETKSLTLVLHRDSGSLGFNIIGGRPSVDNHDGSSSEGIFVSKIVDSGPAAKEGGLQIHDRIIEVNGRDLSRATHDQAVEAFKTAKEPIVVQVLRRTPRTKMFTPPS
# T6: SYNJ2BP, P57105
# T6 sequence (P57105 8-110, limits assumed, looked up): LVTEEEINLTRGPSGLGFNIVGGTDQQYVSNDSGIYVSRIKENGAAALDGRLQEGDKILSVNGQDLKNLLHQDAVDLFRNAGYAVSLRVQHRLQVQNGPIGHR
# T7: APBA3_1, O96018
# T7 sequence (O96018 389-490, limits assumed, looked up): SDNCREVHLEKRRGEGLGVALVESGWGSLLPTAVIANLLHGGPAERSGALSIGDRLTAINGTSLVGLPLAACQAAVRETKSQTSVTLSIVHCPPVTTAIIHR
# T8: TIAM2, Q8IVF5
# T8 sequence (Q8IVF5 885-986, limits assumed, looked up): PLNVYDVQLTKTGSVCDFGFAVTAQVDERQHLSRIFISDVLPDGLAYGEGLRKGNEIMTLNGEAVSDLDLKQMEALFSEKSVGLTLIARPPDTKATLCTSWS
# T9: PDZD7_3, Q9H5P4
# T9 sequence (Q9H5P4 857-944, limits assumed, looked up): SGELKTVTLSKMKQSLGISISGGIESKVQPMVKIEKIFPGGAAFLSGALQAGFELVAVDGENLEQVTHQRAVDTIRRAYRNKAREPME
# T10: GRIP1_2, Q9Y3R0
# T10 sequence (Q9Y3R0 145-248, limits assumed, looked up): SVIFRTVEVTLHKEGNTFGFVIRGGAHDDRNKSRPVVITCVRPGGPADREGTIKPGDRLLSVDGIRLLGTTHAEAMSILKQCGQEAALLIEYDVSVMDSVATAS
# T11: SNTB1, Q13884
# T11 sequence (Q13884 107-205, limits assumed, looked up): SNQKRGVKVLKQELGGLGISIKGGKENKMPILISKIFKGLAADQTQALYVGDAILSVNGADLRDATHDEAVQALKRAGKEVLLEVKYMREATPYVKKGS
# B1: MAPK12, P53778 (peptide)
# chain: GARVSKETPL
# B2: PODXL, O00592 (peptide)
# chain: DLDEEEDTHL
# B3: GDA, Q9Y2T3 (peptide)
# chain: KQVVPFSSSV
# B4: DGKI, O75912 (peptide)
# chain: IGHEDLETAV
# How the values were obtained:
# Experiment in all cases: holdup assay
# Parameters in all cases: key: below the threshold = too weak to quantify, mostly under pKd 3.1 to 4
# [1] = target: FRMPD2_2, Q68DX3
# [2] = target: PTPN3, P26045
# [3] = target: T1, PTPN13_1, Q12923
# [4] = target: GRIP2_7, Q9C0E4
# [5] = target: PICK1, Q9NRD5
# [6] = target: T2, TJP3_3, O95049
# [7] = target: T3, APBA2_1, Q99767
# [8] = target: Inadl_2, Q8NI35
# [9] = target: T4, DFNB31_3, Q9P202
# [10] = target: GORASP1, Q9BQQ3
# [11] = target: Inadl_1, Q8NI35
# [12] = target: FRMPD2_3, Q68DX3
# [13] = target: T5, PDZRN3_1, Q9UPQ7
# [14] = target: T6, SYNJ2BP, P57105
# [15] = target: DLG2_3, Q15700
# [16] = target: T7, APBA3_1, O96018
# [17] = target: MAGI2_6, Q86UL8
# [18] = target: PDZRN4_1, Q6ZMN7
# [19] = target: T8, TIAM2, Q8IVF5
# [20] = target: T9, PDZD7_3, Q9H5P4
# [21] = target: GIPC2, Q8TF65
# [22] = target: T10, GRIP1_2, Q9Y3R0
# [23] = target: DLG4_2, P78352
# [24] = target: SCRIB_2, Q14160
# [25] = target: T11, SNTB1, Q13884
# [26] = target: NHERF4_2, Q86UT5
# [27] = plain residues with an end cap or a label only (N-terminal biotin on a linker: ttds)
# [28] = plain residues with an end cap or a label only (N-terminal biotin on a linker: ado-ado)
# Sequence of PICK1, Q9NRD5 (Q9NRD5 17-115): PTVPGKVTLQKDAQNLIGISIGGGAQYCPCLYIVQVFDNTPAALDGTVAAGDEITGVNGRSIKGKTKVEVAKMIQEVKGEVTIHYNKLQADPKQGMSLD
# Sequence of PTPN3, P26045 (P26045 505-587): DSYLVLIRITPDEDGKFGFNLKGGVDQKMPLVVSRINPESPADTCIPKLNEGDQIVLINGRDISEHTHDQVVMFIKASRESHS
# Sequence of FRMPD2_3, Q68DX3 (Q68DX3 1073-1166): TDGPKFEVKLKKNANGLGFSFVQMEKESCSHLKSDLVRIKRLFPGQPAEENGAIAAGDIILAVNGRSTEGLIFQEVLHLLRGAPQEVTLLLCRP
# Sequence of MAGI2_6, Q86UL8 (Q86UL8 1141-1229): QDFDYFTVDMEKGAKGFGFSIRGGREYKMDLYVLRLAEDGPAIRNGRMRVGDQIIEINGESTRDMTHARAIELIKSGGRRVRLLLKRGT
# Sequence of GRIP2_7, Q9C0E4 (Q9C0E4 934-1023): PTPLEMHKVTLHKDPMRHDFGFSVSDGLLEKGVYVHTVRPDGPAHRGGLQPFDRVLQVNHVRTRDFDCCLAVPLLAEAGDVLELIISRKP
# Sequence of DLG4_2, P78352 (P78352 155-259): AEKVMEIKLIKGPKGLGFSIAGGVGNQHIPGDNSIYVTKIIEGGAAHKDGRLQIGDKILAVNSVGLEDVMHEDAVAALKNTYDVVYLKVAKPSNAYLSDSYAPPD
# Sequence of PDZRN4_1, Q6ZMN7 (Q6ZMN7 213-318): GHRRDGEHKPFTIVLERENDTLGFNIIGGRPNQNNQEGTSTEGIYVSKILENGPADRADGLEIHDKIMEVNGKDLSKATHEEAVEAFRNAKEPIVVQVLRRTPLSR
# Sequence of Inadl_2, Q8NI35 (Q8NI35 238-335): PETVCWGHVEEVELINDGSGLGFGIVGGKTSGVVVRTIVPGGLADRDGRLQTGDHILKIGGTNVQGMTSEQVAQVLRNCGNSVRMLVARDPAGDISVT
# Sequence of GIPC2, Q8TF65 (Q8TF65 112-203): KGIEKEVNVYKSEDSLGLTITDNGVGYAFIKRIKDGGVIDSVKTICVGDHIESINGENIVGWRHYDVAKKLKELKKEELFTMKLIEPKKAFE
# Sequence of Inadl_1, Q8NI35 (Q8NI35 113-229): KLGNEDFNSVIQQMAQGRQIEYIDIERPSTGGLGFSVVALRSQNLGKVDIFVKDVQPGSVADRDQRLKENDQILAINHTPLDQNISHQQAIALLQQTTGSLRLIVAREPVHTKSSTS
# Sequence of SCRIB_2, Q14160 (Q14160 857-960): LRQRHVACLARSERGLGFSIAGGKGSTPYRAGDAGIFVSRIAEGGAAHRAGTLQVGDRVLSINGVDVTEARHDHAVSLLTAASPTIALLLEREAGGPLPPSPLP
# Sequence of NHERF4_2, Q86UT5 (Q86UT5 220-308): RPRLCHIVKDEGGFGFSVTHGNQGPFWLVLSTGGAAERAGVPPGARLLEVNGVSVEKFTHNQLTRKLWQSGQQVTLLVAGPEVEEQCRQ
# Sequence of GORASP1, Q9BQQ3 (Q9BQQ3 1-208): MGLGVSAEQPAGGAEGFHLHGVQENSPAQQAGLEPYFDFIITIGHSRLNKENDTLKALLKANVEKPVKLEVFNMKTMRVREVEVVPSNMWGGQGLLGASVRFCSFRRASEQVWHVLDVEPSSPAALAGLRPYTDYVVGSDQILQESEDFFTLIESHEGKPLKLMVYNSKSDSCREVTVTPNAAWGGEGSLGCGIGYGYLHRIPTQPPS
# Sequence of FRMPD2_2, Q68DX3 (Q68DX3 944-1038): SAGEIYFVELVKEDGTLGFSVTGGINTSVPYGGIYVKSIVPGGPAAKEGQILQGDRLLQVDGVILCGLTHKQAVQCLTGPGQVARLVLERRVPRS
binder,measurement,setting,value
B1,pKd,[1]; [27],below the threshold
same,pKd,[2]; [27],4.93
same,pKd,[3]; [27],below the threshold
same,pKd,[4]; [27],below the threshold
same,pKd,[5]; [27],below the threshold
same,pKd,[6]; [27],below the threshold
same,pKd,[7]; [27],below the threshold
same,pKd,[8]; [27],below the threshold
same,pKd,[9]; [27],below the threshold
same,pKd,[10]; [27],below the threshold
same,pKd,[11]; [27],below the threshold
same,pKd,[12]; [27],below the threshold
same,pKd,[13]; [27],4.84
same,pKd,[14]; [27],4.69
same,pKd,[15]; [27],4.21
same,pKd,[16]; [27],below the threshold
same,pKd,[17]; [27],3.89
same,pKd,[18]; [27],4.71
same,pKd,[19]; [27],below the threshold
same,pKd,[20]; [27],3.86
same,pKd,[21]; [27],below the threshold
same,pKd,[22]; [27],below the threshold
same,pKd,[23]; [27],4.45
same,pKd,[24]; [27],3.65
same,pKd,[25]; [27],4.71
same,pKd,[26]; [27],below the threshold
B2,pKd,[1]; [27],below the threshold
same,pKd,[2]; [27],3.85
same,pKd,[3]; [27],below the threshold
same,pKd,[4]; [27],below the threshold
same,pKd,[5]; [27],below the threshold
same,pKd,[6]; [27],3.5
same,pKd,[7]; [27],below the threshold
same,pKd,[8]; [27],below the threshold
same,pKd,[9]; [27],below the threshold
same,pKd,[10]; [27],below the threshold
same,pKd,[11]; [27],below the threshold
same,pKd,[12]; [27],below the threshold
same,pKd,[13]; [27],below the threshold
same,pKd,[14]; [27],below the threshold
same,pKd,[15]; [27],below the threshold
same,pKd,[16]; [27],below the threshold
same,pKd,[17]; [27],below the threshold
same,pKd,[18]; [27],below the threshold
same,pKd,[19]; [27],below the threshold
same,pKd,[20]; [27],3.59
same,pKd,[21]; [27],below the threshold
same,pKd,[22]; [27],3.63
same,pKd,[23]; [27],below the threshold
same,pKd,[24]; [27],below the threshold
same,pKd,[25]; [27],below the threshold
same,pKd,[26]; [27],below the threshold
B3,pKd,[1]; [27],below the threshold
same,pKd,[2]; [27],4.24
same,pKd,[3]; [27],below the threshold
same,pKd,[4]; [27],below the threshold
same,pKd,[5]; [27],below the threshold
same,pKd,[6]; [27],below the threshold
same,pKd,[7]; [27],below the threshold
same,pKd,[8]; [27],below the threshold
same,pKd,[9]; [27],below the threshold
same,pKd,[10]; [27],below the threshold
same,pKd,[11]; [27],below the threshold
same,pKd,[12]; [27],below the threshold
same,pKd,[13]; [27],below the threshold
same,pKd,[14]; [27],5
same,pKd,[15]; [27],3.63
same,pKd,[16]; [27],below the threshold
same,pKd,[17]; [27],4.02
same,pKd,[18]; [27],3.49
same,pKd,[19]; [27],below the threshold
same,pKd,[20]; [27],3.59
same,pKd,[21]; [27],below the threshold
same,pKd,[22]; [27],below the threshold
same,pKd,[23]; [27],4.42
same,pKd,[24]; [27],below the threshold
same,pKd,[25]; [27],3.65
same,pKd,[26]; [27],below the threshold
B4,pKd,[1]; [28],5.22
same,pKd,[2]; [28],5.02
same,pKd,[3]; [28],below the threshold
same,pKd,[4]; [28],below the threshold
same,pKd,[5]; [28],below the threshold
same,pKd,[6]; [28],below the threshold
same,pKd,[7]; [28],below the threshold
same,pKd,[8]; [28],below the threshold
same,pKd,[9]; [28],3.92
same,pKd,[10]; [28],below the threshold
same,pKd,[11]; [28],below the threshold
same,pKd,[12]; [28],3.56
same,pKd,[13]; [28],4.75
same,pKd,[14]; [28],5.25
same,pKd,[15]; [28],3.96
same,pKd,[16]; [28],below the threshold
same,pKd,[17]; [28],4.59
same,pKd,[18]; [28],4.7
same,pKd,[19]; [28],below the threshold
same,pKd,[20]; [28],4.59
same,pKd,[21]; [28],3.6
same,pKd,[22]; [28],below the threshold
same,pKd,[23]; [28],4.97
same,pKd,[24]; [28],4.83
same,pKd,[25]; [28],5.08
same,pKd,[26]; [28],below the threshold
